Experimental data taken from publication PMC10104637, “Phosphorylation of USP29 by CDK1 Governs TWIST1 Stability and Oncogenic Functions” (Advanced Science, 2023).

Biological target: T1, GST-USP29 (UniProt Q9HBJ7 1-922)
T1 construct: USP29 cloned into pGEX-4T-1; also called purified GST-USP29; GST-USP29 WT; source: E. coli BL21, purified (Pierce Glutathione Agarose)
T1 sequence (looked up): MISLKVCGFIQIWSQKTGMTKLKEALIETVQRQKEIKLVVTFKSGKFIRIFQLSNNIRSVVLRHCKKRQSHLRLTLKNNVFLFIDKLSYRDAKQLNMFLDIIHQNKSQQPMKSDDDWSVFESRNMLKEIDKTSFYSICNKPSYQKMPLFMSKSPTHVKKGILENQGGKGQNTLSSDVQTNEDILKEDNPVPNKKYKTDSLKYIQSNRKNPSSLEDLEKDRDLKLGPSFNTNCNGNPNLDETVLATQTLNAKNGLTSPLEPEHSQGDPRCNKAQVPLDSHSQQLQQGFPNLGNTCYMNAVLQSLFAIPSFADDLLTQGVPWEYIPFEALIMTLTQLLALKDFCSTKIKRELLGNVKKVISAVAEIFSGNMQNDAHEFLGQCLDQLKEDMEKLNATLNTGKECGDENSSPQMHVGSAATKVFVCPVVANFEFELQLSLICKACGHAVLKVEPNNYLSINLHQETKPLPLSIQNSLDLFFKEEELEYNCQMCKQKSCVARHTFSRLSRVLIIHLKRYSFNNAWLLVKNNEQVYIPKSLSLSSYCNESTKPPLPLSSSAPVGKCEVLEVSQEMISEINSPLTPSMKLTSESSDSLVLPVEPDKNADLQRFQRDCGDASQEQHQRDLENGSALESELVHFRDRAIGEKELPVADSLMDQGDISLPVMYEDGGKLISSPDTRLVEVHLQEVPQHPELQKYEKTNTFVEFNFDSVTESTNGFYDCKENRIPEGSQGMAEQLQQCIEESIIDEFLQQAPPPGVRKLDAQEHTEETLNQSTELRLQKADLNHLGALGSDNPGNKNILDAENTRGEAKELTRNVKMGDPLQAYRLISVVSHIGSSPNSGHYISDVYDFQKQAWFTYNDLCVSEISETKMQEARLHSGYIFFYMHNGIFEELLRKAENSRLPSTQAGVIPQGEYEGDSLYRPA
Experiment: pull-down; GST or GST-USP29 bound to Pierce Glutathione Agarose incubated with the purified His-tagged protein overnight at 4 °C; beads washed four times with PBS; western blot
Details: both partners purified

binding result: binds
B1: His-TWIST1 (natural protein, UniProt Q15672 1-202, looked up)
chain: MMQDVSSSPVSPADDSLSNSEEEPDRQQPPSGKRGGRKRRSSRRSAGGGAGPGGAAGGGVGGGDEPGSPAQGKRGKKSAGCGGGGGAGGGGGSSSGGGSPQSYEELQTQRVMANVRERQRTQSLNEAFAALRKIIPTLPSDKLSKIQTLKLAARYIDFLYQVLQSDELDSKMASCSYVAHERLSYAFSVWRMEGAWSMSASH
notes: TWIST1 cloned into PET28A; also called PET28A-TWIST1; source: E. coli BL21, purified
